In one test the target is LC3B (Homo sapiens) (UniProt Q9GZQ8). Particulars: cited from earlier work.
Test [1] has as its target LC3B fused with mCherry (microtubule-associated protein light chain 3) (human) (UniProt Q9GZQ8). The experiment in a line: ELISA; plate coated with 5 μg/ml mCherry-LC3B in PBS, blocked with BSA; serial dilutions of TPPP/p25 forms or SYN; detected by TPPP/p25 or SYN antibodies; apparent Kd from hyperbola with a single binding site. On the technique in general: ELISA stands for enzyme-linked immunosorbent assay.

SQSTM1/p62 (from UniProt Q13501): in the test with LC3B (Homo sapiens), the Kd was 1.5 µM.
Consider “Tubulin Polymerization Promoting Protein (TPPP/p25), human recombinant with hexaHis tag (from UniProt O94811 1-219) (natural protein; other documents disagree on this pair)”, for which the Kd in test [1] turned out to be 0.0215 µM.
